# Laboratory results published in patent US20140271457A1 (AbbVie / Abbott, published 2014).
# Changes are numbered by the printed parent chain.
# B1: DVD3223 (bispecific antibody, IgG1)
# VH: EVQLVQSGAEVKKPGASVKVSCKASGYTFANYGIIWVRQAPGQGLEWMGWINTYTGKPTYAQKFQGRVTMTTDTSTSTAYMELSSLRSEDTAVYYCARKLFTTMDVTDNAMDYWGQGTTVTVSSGGGGSGGGGSEVQLVESGGGLVQPGGSLRLSCAASGFSFSKYWLGWVRQAPGKGLEWVSDIYPGYDYTHYNEKFKDRFTISADTSKNTAYLQMNSLRAEDTAVYYCARSDGSSTYWGQGTLVTVSS
# VL: DIQMTQSPSSLSASVGDRVTITCRASQDISQYLNWYQQKPGKAPKLLIYYTSRLQSGVPSRFSGSGSGTDFTLTISSLQPEDFATYFCQQGNTWPPTFGQGTKLEIKRGGSGGGGSGDIQMTQSPSSLSASVGDRVTITCTSSQNIVHSNGNTYLEWYQQKPGKAPKLLIYKVSNRFSGVPSRFSGSGSGTDFTLTISSLQPEDFATYYCFQVSHVPYTFGQGTKVEIKR
# B2: DVD3233 (bispecific antibody, IgG1)
# VH: B1 VH with A30N, T102N, M104V, D105A
# VL: B1 VL with S30E, Q31N, W94Q
# B3: DVD3222 (bispecific antibody, IgG1)
# VH: EVQLVESGGGLVQPGGSLRLSCAASGFSFSKYWLGWVRQAPGKGLEWVSDIYPGYDYTHYNEKFKDRFTISADTSKNTAYLQMNSLRAEDTAVYYCARSDGSSTYWGQGTLVTVSSASTKGPSVFPLAPEVQLVESGGGLVQPGGSLRLSCAASGFTFSNYGVEWVRQAPGKGLEWVSGIWADGSTHYADTVKSRFTISRDNSKNTLYLQMNSLRAEDTAVYYCAREWQHGPVAYWGQGTLVTVSS
# VL: DIQMTQSPSSLSASVGDRVTITCTSSQNIVHSNGNTYLEWYQQKPGKAPKLLIYKVSNRFSGVPSRFSGSGSGTDFTLTISSLQPEDFATYYCFQVSHVPYTFGQGTKVEIKRTVAAPDIQMTQSPSSLSASVGDRVTITCKASQLVSSAVAWYQQKPGKAPKLLIYWASTLHTGVPSRFSGSGSGTDFTLTISSLQPEDFATYYCQQHYRTPFTFGQGTKLEIKR
# B4: DVD3228 (bispecific antibody, IgG1)
# VH: EVQLVESGGGLVQPGGSLRLSCAASGFSFSKYWLGWVRQAPGKGLEWVSDIYPGYDYTHYNEKFKDRFTISADTSKNTAYLQMNSLRAEDTAVYYCARSDGSSTYWGQGTLVTVSSGGGGSGGGGSEVQLVQSGAEVKKPGASVKVSCKASGYTFANYGIIWVRQAPGQGLEWMGWINTYTGKPTYAQKFQGRVTMTTDTSTSTAYMELSSLRSEDTAVYYCARKLFTTMDVTDNAMDYWGQGTTVTVSS
# VL: DIQMTQSPSSLSASVGDRVTITCTSSQNIVHSNGNTYLEWYQQKPGKAPKLLIYKVSNRFSGVPSRFSGSGSGTDFTLTISSLQPEDFATYYCFQVSHVPYTFGQGTKVEIKRGGSGGGGSGDIQMTQSPSSLSASVGDRVTITCRASQDISQYLNWYQQKPGKAPKLLIYYTSRLQSGVPSRFSGSGSGTDFTLTISSLQPEDFATYFCQQGNTWPPTFGQGTKLEIKR
# B5: DVD3229 (bispecific antibody, IgG1)
# VH: EVQLVESGGGLVQPGGSLRLSCAASGFSFSKYWLGWVRQAPGKGLEWVSDIYPGYDYTHYNEKFKDRFTISADTSKNTAYLQMNSLRAEDTAVYYCARSDGSSTYWGQGTLVTVSSASTKGPEVQLVQSGAEVKKPGASVKVSCKASGYTFANYGIIWVRQAPGQGLEWMGWINTYTGKPTYAQKFQGRVTMTTDTSTSTAYMELSSLRSEDTAVYYCARKLFTTMDVTDNAMDYWGQGTTVTVSS
# VL: DIQMTQSPSSLSASVGDRVTITCTSSQNIVHSNGNTYLEWYQQKPGKAPKLLIYKVSNRFSGVPSRFSGSGSGTDFTLTISSLQPEDFATYYCFQVSHVPYTFGQGTKVEIKRTVAAPDIQMTQSPSSLSASVGDRVTITCRASQDISQYLNWYQQKPGKAPKLLIYYTSRLQSGVPSRFSGSGSGTDFTLTISSLQPEDFATYFCQQGNTWPPTFGQGTKLEIKR
# B6: DVD3232 (bispecific antibody, IgG1)
# VH: EVQLVESGGGLVQPGGSLRLSCAASGFSFSKYWLGWVRQAPGKGLEWVSDIYPGYDYTHYNEKFKDRFTISADTSKNTAYLQMNSLRAEDTAVYYCARSDGSSTYWGQGTLVTVSSASTKGPSVFPLAPEVQLVQSGAEVKKPGASVKVSCKASGYTFANYGIIWVRQAPGQGLEWMGWINTYTGKPTYAQKFQGRVTMTTDTSTSTAYMELSSLRSEDTAVYYCARKLFTTMDVTDNAMDYWGQGTTVTVSS
# VL: B5 VL
# B7: DVD3231 (bispecific antibody, IgG1)
# VH: B5 VH
# VL: DIQMTQSPSSLSASVGDRVTITCTSSQNIVHSNGNTYLEWYQQKPGKAPKLLIYKVSNRFSGVPSRFSGSGSGTDFTLTISSLQPEDFATYYCFQVSHVPYTFGQGTKVEIKRTVAAPSVFIFPPDIQMTQSPSSLSASVGDRVTITCRASQDISQYLNWYQQKPGKAPKLLIYYTSRLQSGVPSRFSGSGSGTDFTLTISSLQPEDFATYFCQQGNTWPPTFGQGTKLEIKR
# B8: DVD3224 (bispecific antibody, IgG1)
# VH: EVQLVQSGAEVKKPGASVKVSCKASGYTFANYGIIWVRQAPGQGLEWMGWINTYTGKPTYAQKFQGRVTMTTDTSTSTAYMELSSLRSEDTAVYYCARKLFTTMDVTDNAMDYWGQGTTVTVSSASTKGPEVQLVESGGGLVQPGGSLRLSCAASGFSFSKYWLGWVRQAPGKGLEWVSDIYPGYDYTHYNEKFKDRFTISADTSKNTAYLQMNSLRAEDTAVYYCARSDGSSTYWGQGTLVTVSS
# VL: DIQMTQSPSSLSASVGDRVTITCRASQDISQYLNWYQQKPGKAPKLLIYYTSRLQSGVPSRFSGSGSGTDFTLTISSLQPEDFATYFCQQGNTWPPTFGQGTKLEIKRTVAAPDIQMTQSPSSLSASVGDRVTITCTSSQNIVHSNGNTYLEWYQQKPGKAPKLLIYKVSNRFSGVPSRFSGSGSGTDFTLTISSLQPEDFATYYCFQVSHVPYTFGQGTKVEIKR
# B9: DVD3227 (bispecific antibody, IgG1)
# VH: EVQLVQSGAEVKKPGASVKVSCKASGYTFANYGIIWVRQAPGQGLEWMGWINTYTGKPTYAQKFQGRVTMTTDTSTSTAYMELSSLRSEDTAVYYCARKLFTTMDVTDNAMDYWGQGTTVTVSSASTKGPSVFPLAPEVQLVESGGGLVQPGGSLRLSCAASGFSFSKYWLGWVRQAPGKGLEWVSDIYPGYDYTHYNEKFKDRFTISADTSKNTAYLQMNSLRAEDTAVYYCARSDGSSTYWGQGTLVTVSS
# VL: B8 VL
# B10: DVD3226 (bispecific antibody, IgG1)
# VH: B8 VH
# VL: DIQMTQSPSSLSASVGDRVTITCRASQDISQYLNWYQQKPGKAPKLLIYYTSRLQSGVPSRFSGSGSGTDFTLTISSLQPEDFATYFCQQGNTWPPTFGQGTKLEIKRTVAAPSVFIFPPDIQMTQSPSSLSASVGDRVTITCTSSQNIVHSNGNTYLEWYQQKPGKAPKLLIYKVSNRFSGVPSRFSGSGSGTDFTLTISSLQPEDFATYYCFQVSHVPYTFGQGTKVEIKR
# B11: DVD3234 (bispecific antibody, IgG1)
# VH: B8 VH with A30N, T102N, M104V, D105A
# VL: B8 VL with S30E, Q31N, W94Q
# B12: DVD3236 (bispecific antibody, IgG1)
# VH: B8 VH with A30N, T102N, M104V, D105A
# VL: B10 VL with S30E, Q31N, W94Q
# B13: DVD3237 (bispecific antibody, IgG1)
# VH: B9 VH with A30N, T102N, M104V, D105A
# VL: B8 VL with S30E, Q31N, W94Q
# Target: Recombinant Human TNF-α/TNFSF1A (human, UniProt P01375 77-233)
# Sequence (P01375 77-233 limits assumed): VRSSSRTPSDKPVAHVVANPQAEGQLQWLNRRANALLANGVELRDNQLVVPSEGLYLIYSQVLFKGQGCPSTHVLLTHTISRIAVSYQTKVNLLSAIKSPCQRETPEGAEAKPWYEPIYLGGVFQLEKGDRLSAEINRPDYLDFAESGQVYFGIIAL
# Assay: cell-based or functional assay
Binder,N-Terminal VD huTNFα Neutralization Assay IC50 [nM],C-Terminal VD huTNFα Neutralization Assay IC50 [nM]
B1,0.002,–
B2,0.005,–
B3,–,0.243
B4,–,0.052
B5,–,0.086
B6,–,0.254
B7,–,0.112
B8,0.004,–
B9,0.002,–
B10,0.011,–
B11,0.009,–
B12,0.006,–
B13,0.01,–
